Measured values published in patent publication CN1800373A (RADIOLOGY INST OF PLA MILITARY, dated 2006).
Each block holds one molecule with its values, some of them ahead of it.

How the values were obtained:
[1] = target: VEGFR-3/Ig重组蛋白 (R&D research system corp.) (human) (UniProt P35916); assay: ELISA, coated VEGFR-3/Fc 0.5 μg/mL, negative control
正常人IgG (北京中杉金桥有限公司) = assay: ELISA, coated normal human IgG 0.5 μg/mL, negative control
[2] = target: VEGFR-3/Ig重组蛋白 (R&D research system corp.) (human) (UniProt P35916); assay: ELISA, coated VEGFR-3/Fc 0.5 μg/mL, scFv at 13 μg/mL
[3] = target: VEGFR-3/Ig重组蛋白 (R&D research system corp.) (human) (UniProt P35916); assay: ELISA, coated VEGFR-3/Fc 0.5 μg/mL, scFv at 65 μg/mL
[4] = target: VEGFR-3/Ig重组蛋白 (R&D research system corp.) (human) (UniProt P35916); assay: ELISA, coated VEGFR-3/Fc 0.5 μg/mL, scFv at 6.5 μg/mL
[5] = target: T1, VEGFR-3/Ig重组蛋白 (R&D research system corp.) (human, UniProt P35916 25-776); assay: ELISA-type assay, OD450; VEGFR-3/Fc 1 and 2 μg/mL mixed with 20 μg/mL GST-VEGF-D (Fig. 1)
T1 construct: Bought protein; also called VEGFR-3/Fc; VEGFR-3/IgG; not shown: Ig/Fc part of the bought fusion
T1 sequence (looked up): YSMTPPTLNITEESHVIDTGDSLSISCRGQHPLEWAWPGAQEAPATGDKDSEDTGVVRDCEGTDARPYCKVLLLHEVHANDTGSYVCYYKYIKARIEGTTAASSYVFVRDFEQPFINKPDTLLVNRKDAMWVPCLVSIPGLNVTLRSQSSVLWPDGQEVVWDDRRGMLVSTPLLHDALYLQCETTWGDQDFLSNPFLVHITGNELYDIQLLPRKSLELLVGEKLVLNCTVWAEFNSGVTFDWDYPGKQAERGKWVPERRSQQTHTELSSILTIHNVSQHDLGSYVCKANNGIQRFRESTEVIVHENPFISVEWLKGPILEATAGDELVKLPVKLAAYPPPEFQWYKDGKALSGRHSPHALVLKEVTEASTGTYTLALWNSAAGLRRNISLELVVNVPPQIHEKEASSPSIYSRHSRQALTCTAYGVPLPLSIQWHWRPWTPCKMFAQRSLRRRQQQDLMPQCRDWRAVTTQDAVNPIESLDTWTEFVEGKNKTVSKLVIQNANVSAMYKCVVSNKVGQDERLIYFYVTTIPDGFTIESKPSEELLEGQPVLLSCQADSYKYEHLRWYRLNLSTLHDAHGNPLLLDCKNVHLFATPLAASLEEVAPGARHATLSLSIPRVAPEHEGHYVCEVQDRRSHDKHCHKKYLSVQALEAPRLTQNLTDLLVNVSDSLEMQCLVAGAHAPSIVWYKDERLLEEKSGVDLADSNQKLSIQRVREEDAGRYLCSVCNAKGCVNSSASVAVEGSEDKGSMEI

HEL细胞表面表达的VEGFR-3 = target: T2, HEL细胞表面表达的VEGFR-3 (human, UniProt P35916 25-1363); assay: Western blot of HEL cell lysate (Fig. 4)
T2 construct: whole, on cells; On whole HEL cells in flow cytometry; in HEL cell lysate in the immunoblot; also called VEGFR-3多肽 (175kDa, 125kDa bands of HEL lysate)

[6] = target: VEGFR-3/Ig重组蛋白 (R&D research system corp.) (human) (UniProt P35916); assay: ELISA, coated VEGFR-3/Fc 0.5 μg/mL, supernatant of hybridoma BDD073

OD 450 [1]: 0.05 OD450 | OD 450 (正常人IgG (北京中杉金桥有限公司)): 0.064 OD450
Molecule: 正常鼠血清(1∶1000)

OD 450 [2]: 0.73 OD450 | OD 450 [3]: 1.01 OD450 | OD 450 [4]: 0.515 OD450
B1: 可溶性抗VEGFR-3单链抗体VL-linker-VH (scFv, not shown: large carriers)
scFv: DIVLTQSPASLAVSLGQRATISCRASKSVSTFGYSYMHWYQQKPGQPPKLLIYLASNLESGVPARFSGSGSGTDFTLNIHPVEEEDAATYYCQHSRELMYTFGGGTKLEIKRGGGGSGGGGSGGSQVQLQESGGGLVRPRGSLKLSCAASGFTFNTYAMNWVRQAPGKGLEWIARIRNKSNNYATYYANSVKDRFTISRGDSQSMLYLQMNNLKTEDTAMYYCVRDGYSLVHWGHGTLVTVS

The next lines start with the molecule.

B2: 重组人GST-VEGF-D (ligand, human, UniProt O43915 89-205, looked up)
chain: FAATFYDIETLKVIDEEWQRTQCSPRETCVEVASELGKSTNTFFKPPCVNVFRCGGCCNEESLICMNTSTSYISKQLFEISVPLTSVPELVPVKVANHTGCKCLPTAPRHPYSIIRR
notes: domain: VHD; Expressed in E. coli BL21(DE3), 38 kD, purified on a GST column; not shown: GST tag encoded by vector pGEX-5X-1 (Amersham)
binding result [5]: binds

B3: 抗人VEGFR-3的单克隆抗体ABDD073 (antibody, mouse IgG2a, V domains shown)
VH: QVQLQESGGGLVRPRGSLKLSCAASGFTFNTYAMNWVRQAPGKGLEWIARIRNKSNNYATYYANSVKDRFTISRGDSQSMLYLQMNNLKTEDTAMYYCVRDGYSLVHWGHGTLVTVS
VL: DIVLTQSPASLAVSLGQRATISCRASKSVSTFGYSYMHWYQQKPGQPPKLLIYLASNLESGVPARFSGSGSGTDFTLNIHPVEEEDAATYYCQHSRELMYTFGGGTKLEIKR
notes: The 132-residue entry was amplified with a primer that starts at ATG, so it may hold a leader; also called BDD073上清; monoclonal antibody of hybridoma BDD073 CGMCC No.1537
binding result (HEL细胞表面表达的VEGFR-3): binds | OD 450 [6]: 0.889 OD450
